Reference: patent US20200079848A1 (Five Prime, published 2020)
Several values for one entry are separate records, joined by “and”; a condition that tells them apart may be missing. Equal entries are not always repeated. Each block holds one binder with its values, some of them ahead of it.

Legend:
[1] = biological target: T1, cyno ILT4 9152 extracellular domain, including His-Avi Tag (cynomolgus monkey); assay: SPR ProteOn XPR36, 37 C; antibody amine-coupled to GLC chip, ILT4 ECD-His-Avi as analyte
Description: (§1) The antibody was amine-coupled to a GLC sensor chip in a Proteon XPR36 instrument (BioRad). […] All data were double-referenced, exported, and analyzed with BIAevaluation Software 4.1.1 using the kinetic titration model described by Karlsson et al (Karlsson et al. (2005) Analytical Biochem. 349:136). The running buffer consisted of 10 mM HEPES pH 7.4, 150 mM NaCl and 0.05% Tween-20. The assay temperature was 37° C.

hILT4-His-Avi tag [2] = biological target: T2, hILT4-His-Avi tag (human, UniProt Q8N423 22-459); assay: SPR Biacore T200, 37 C; antibody captured by anti-human Fc on CM4 chip, hILT4-His-Avi as analyte; 1:1 Langmuir fit
T2 construct: also called monomeric human ILT4; extracellular region of hILT4 linked to a His-Avi tag
Description: The running buffer was 10 mM HEPES pH 7.4 supplemented with 0.05% Tween-20 and 1 g/L BSA. All anti-ILT4 antibodies were captured on a CM4 chip with pre-immobilized anti-human Fc capture antibody from Southern Biotech (catalog number 2081-01). […] All data were double-referenced and fitted to a 1:1 Langmuir model with mass transport using Biacore T200 Evaluation Software version 3.1.

hILT4-His-Avi tag [3] = biological target: T2, hILT4-His-Avi tag; assay: SPR Biacore T200, 37 C; antibody captured on protein A/G chip, monomeric hILT4 as analyte; kinetic fit
Description: The binding kinetics of the parent and germline reversion mutant anti-hILT4 antibodies (in the context of IgG1.3) were measured via Surface Plasmon Resonance (SPR) using a Biacore® T200 instrument. The assay temperature was 37° C. and the running buffer was PBS pH 7.4 supplemented with 0.05% Tween-20. Allanti-hILT4 antibodies were captured on a CM4 chip with pre-immobilized protein A/G (Pierce Thermo Scientific catalog number 21186). […] Monomeric human ILT4 was injected as analyte. […] The hILT4 used in this experiment, comprising the extracellular region of hILT4 linked to a His-Avi tag, consists of the following amino acid sequence: […]

hILT4-His-Avi tag [4] = biological target: T2, hILT4-His-Avi tag; assay: SPR ProteOn XPR36, 37 C; antibody amine-coupled to GLC chip, ILT4 ECD-His-Avi as analyte; kinetic titration
Description: as §1

[5] = biological target: T1, cyno ILT4 9152 extracellular domain, …; assay: as above
Description: as §1

[6] = biological target: T3, human ILT4 (hILT4) expressed on cells (human, UniProt Q8N423 22-597); assay: flow cytometry on hILT4-transfected CHO cells, PE anti-human IgG secondary, GMFI (PE); EC50 from the table below the graph; the table has no unit, the concentration axis is in ug/mL
T3 construct: hILT4 on transfected CHO or 293T cells, or native on human monocytes and macrophages; also called LILRB2

human LILRA4 = biological target: T4, human LILRA4 (human, UniProt P59901 24-499); assay: flow cytometry, 293T transfectants, antibody 20 µg/ml; stacked histograms, control: parental cells
T4 construct: whole, on cells; also called hLILRA4
Description: (§2) Individual ILT family members were overexpressed in 293T cells. Each transfectant was stained with 20 μg/ml of anti-ILT4 antibodies followed by 1 μg/ml of anti-human IgG secondary mAb. Binding of the antibodies to each transfectant was measured by flow cytometry.

human LILRA1 [7] = biological target: T5, human LILRA1 (human, UniProt O75019 17-489); assay: as above
T5 construct: whole, on cells; also called hLILRA1; LIRA1
Description: as §2

human LIR8 = biological target: T6, human LIR8 (human, UniProt O75023 24-590); assay: as above
T6 construct: whole, on cells; also called hLIR8
Description: as §2

human LILRA2 = biological target: T7, human LILRA2 (human, UniProt Q8N149 24-483); assay: as above
T7 construct: whole, on cells; also called hLILRA2
Description: as §2

human ILT2 = biological target: T8, human ILT2 (human, UniProt Q8NHL6 24-650); assay: as above
T8 construct: whole, on cells; also called hILT2
Description: as §2

human LILRA6 = biological target: T9, human LILRA6 (human, UniProt Q6PI73 24-481); assay: as above
T9 construct: whole, on cells; also called hLILRA6
Description: as §2

human ILT3 = biological target: T10, human ILT3 (human, UniProt Q8NHJ6 22-448); assay: as above
T10 construct: whole, on cells; also called hILT3
Description: as §2

human LILRA3 [8] = biological target: T11, human LILRA3 (human, UniProt Q8N6C8 24-439); assay: as above
T11 construct: whole, on cells; also called hLILRA3; LIRA3
Description: as §2

human ILT5 = biological target: T12, human ILT5 (human, UniProt O75022 24-631); assay: as above
T12 construct: whole, on cells; also called hILT5; LILRB3
Description: as §2

human LILRA5 [9] = biological target: T13, human LILRA5 (human, UniProt A6NI73 42-299); assay: antibody titration flow cytometry binding assay on transfected cells, nonlinear regression
T13 construct: whole, on cells; also called hLILRA5

[10] = biological target: T3, human ILT4 (hILT4) expressed on cells; assay: as above
[11] = biological target: T3, human ILT4 (hILT4) expressed on cells; assay: flow cytometry on human monocytes of a healthy donor, directly labelled antibody, GMFI; EC50 from the table below the graph; the table has no unit, the concentration axis is in ug/mL
Source text: In FIG. 18B, monocytes selected from a normal healthy donor's peripheral blood were stained with individual anti-ILT4 antibodies conjugated to […].

rhILT4-Fc [12] = biological target: T14, rhILT4-Fc (human, UniProt Q8N423-1 22-461); assay: flow cytometry blocking assay: antibody titrated (12 points) with rhILT4-Fc fixed at 30 µg/ml; rhILT4-Fc bound to HLA-B overexpressing CHO cells read as % Positive; blocked ligand: HLA-B; the IC50 table has no unit, the concentration axis is in ug/mL
T14 construct: also called rhILT4-Fc fusion protein with a murine Fc tail; not shown: murine Fc tail

[13] = biological target: T3, human ILT4 (hILT4) expressed on cells; assay: flow cytometry cross-blocking on hILT4 CHO cells: unlabelled antibody titrated from 40 µg/mL, then PE-21D9.IgG1.1f at 1.5 µg/mL; competitor: PE-21D9; the 21A5 curve does NOT fall: GMFI (PE) goes from about 615 up to about 665, no blocking of PE-21D9; the printed EC50 belongs to this small rise; table without unit, axis in µg/mL
Source text: (§3) After washing, the samples were acquired on a FACSCanto™ cytometer (BD Bioscience, San Jose) and analyzed with Flowjo™ software (Tree Star, Inc, Ashland, Oreg.).

human LILRA5 [14] = biological target: T13, human LILRA5; assay: flow cytometry, 293T transfectants, antibody 20 µg/ml; stacked histograms, control: parental cells
Description: as §2

human LILRA1 [15] = biological target: T5, human LILRA1; assay: antibody titration flow cytometry binding assay on transfected cells, nonlinear regression
human LILRA3 [16] = biological target: T11, human LILRA3; assay: as above
[17] = biological target: T3, human ILT4 (hILT4) expressed on cells; assay: flow cytometry cross-blocking on hILT4 CHO cells: unlabelled antibody titrated from 40 µg/mL, then PE-2H2.IgG1.1f at 1.5 µg/mL; competitor: PE-2H2; GMFI (PE) falls from about 330 to about 25; the table calls the value EC50 and has no unit, the concentration axis is in µg/mL
Source text: as §3

rhILT4-Fc [18] = biological target: T14, rhILT4-Fc; assay: flow cytometry blocking assay: antibody titrated (12 points) with rhILT4-Fc fixed at 30 µg/ml; rhILT4-Fc bound to HLA-A overexpressing CHO cells read as % Positive; blocked ligand: HLA-A; the IC50 table has no unit, the concentration axis is in ug/mL

T3 sequence (Q8N423 other isoform, or with tags, fused parts or gaps): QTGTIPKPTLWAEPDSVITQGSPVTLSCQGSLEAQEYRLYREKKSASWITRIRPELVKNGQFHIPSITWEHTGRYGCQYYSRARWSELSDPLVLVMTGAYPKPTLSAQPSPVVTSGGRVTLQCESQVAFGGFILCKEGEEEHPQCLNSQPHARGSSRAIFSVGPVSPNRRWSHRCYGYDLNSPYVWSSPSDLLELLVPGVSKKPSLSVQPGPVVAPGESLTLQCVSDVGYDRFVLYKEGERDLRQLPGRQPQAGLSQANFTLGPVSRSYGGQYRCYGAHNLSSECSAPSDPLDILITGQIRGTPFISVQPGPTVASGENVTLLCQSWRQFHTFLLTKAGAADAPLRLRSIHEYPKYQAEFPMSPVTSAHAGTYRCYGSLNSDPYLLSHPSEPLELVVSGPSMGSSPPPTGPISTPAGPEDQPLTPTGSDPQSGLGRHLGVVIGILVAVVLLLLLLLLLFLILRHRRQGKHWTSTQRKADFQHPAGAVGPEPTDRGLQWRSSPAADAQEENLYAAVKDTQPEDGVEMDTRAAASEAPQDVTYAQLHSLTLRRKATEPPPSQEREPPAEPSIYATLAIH
T2 sequence (Q8N423 other isoform, or with tags, fused parts or gaps): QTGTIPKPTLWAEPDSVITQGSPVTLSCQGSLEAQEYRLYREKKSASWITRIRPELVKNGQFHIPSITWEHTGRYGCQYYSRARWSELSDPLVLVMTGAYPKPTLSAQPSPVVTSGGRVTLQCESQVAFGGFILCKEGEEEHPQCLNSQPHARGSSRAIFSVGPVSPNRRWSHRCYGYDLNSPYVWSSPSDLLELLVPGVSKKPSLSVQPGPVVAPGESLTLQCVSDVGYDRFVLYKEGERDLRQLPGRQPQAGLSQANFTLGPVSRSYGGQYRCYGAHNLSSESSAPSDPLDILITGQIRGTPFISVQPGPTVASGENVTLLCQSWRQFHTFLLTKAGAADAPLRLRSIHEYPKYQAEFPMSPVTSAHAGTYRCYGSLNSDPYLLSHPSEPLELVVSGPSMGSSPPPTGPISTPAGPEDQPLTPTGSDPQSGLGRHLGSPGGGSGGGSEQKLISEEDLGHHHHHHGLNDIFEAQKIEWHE
T1 sequence (chain, as listed by the source limits assumed): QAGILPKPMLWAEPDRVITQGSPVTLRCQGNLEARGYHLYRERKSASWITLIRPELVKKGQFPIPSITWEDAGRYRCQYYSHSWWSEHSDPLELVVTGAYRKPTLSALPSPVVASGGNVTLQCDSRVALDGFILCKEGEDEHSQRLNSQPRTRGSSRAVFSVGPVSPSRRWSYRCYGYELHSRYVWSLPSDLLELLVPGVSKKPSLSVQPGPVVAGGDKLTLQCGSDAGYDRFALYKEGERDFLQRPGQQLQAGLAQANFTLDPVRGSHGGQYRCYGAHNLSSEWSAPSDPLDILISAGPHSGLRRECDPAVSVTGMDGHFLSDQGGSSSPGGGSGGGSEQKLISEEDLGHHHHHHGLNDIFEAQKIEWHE
T6 sequence (O75023 24-590): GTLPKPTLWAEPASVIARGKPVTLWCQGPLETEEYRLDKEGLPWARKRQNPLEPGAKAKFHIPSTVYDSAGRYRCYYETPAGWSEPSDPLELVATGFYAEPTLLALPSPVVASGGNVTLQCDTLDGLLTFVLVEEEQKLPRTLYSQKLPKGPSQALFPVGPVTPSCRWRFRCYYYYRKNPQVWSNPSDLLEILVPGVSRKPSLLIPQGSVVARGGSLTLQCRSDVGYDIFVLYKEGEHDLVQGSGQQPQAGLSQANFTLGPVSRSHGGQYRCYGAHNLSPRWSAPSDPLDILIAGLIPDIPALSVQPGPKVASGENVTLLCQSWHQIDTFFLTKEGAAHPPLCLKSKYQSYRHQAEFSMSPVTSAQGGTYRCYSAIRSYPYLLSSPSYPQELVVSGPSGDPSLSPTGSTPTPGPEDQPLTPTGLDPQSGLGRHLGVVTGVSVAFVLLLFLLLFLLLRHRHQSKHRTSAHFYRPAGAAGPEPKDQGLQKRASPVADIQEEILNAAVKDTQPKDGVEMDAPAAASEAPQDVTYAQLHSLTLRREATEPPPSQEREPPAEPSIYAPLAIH
T13 sequence (A6NI73 42-299): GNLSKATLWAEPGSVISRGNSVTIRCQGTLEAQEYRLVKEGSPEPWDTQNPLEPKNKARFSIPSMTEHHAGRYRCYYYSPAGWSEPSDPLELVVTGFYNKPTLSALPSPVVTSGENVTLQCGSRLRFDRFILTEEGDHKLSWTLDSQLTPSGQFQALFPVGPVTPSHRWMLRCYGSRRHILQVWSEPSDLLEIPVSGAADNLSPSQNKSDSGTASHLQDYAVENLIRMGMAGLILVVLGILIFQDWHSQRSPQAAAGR
T7 sequence (Q8N149 24-483): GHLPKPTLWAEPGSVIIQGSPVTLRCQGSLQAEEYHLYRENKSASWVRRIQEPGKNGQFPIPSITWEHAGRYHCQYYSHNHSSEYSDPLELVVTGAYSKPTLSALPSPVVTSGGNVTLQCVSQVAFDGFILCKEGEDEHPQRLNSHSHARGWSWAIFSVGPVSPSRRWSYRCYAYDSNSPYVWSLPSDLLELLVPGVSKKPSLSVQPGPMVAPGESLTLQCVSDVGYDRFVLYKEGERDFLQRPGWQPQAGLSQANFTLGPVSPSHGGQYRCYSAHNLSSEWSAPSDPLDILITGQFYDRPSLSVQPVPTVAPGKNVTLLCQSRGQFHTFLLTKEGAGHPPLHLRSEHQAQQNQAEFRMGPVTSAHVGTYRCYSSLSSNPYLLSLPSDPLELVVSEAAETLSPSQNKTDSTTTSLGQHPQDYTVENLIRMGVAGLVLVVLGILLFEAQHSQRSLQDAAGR
T4 sequence (P59901 24-499): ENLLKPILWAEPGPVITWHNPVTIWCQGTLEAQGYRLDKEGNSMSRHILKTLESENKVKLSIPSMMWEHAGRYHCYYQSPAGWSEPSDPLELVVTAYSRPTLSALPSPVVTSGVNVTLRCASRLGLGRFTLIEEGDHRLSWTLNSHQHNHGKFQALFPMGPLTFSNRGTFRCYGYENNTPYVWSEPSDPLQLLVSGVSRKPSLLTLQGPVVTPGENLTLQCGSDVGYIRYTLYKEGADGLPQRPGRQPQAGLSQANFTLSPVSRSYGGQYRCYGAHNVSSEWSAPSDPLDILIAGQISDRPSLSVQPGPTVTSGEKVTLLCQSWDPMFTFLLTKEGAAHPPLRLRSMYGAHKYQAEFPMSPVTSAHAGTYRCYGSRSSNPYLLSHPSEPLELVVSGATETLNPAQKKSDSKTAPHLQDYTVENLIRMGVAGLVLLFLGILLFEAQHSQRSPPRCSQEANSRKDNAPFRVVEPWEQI
T11 sequence (Q8N6C8 24-439): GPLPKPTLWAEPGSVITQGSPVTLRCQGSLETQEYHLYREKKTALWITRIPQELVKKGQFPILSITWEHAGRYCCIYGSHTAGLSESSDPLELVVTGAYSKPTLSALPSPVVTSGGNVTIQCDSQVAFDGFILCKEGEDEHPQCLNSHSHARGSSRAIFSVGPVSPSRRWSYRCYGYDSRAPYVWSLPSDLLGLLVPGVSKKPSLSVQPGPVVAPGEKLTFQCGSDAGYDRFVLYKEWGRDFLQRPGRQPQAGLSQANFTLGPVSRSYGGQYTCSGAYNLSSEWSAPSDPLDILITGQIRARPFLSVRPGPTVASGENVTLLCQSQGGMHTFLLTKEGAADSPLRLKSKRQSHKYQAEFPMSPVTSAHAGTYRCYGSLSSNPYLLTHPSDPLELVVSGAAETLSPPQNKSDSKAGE
T5 sequence (O75019 17-489): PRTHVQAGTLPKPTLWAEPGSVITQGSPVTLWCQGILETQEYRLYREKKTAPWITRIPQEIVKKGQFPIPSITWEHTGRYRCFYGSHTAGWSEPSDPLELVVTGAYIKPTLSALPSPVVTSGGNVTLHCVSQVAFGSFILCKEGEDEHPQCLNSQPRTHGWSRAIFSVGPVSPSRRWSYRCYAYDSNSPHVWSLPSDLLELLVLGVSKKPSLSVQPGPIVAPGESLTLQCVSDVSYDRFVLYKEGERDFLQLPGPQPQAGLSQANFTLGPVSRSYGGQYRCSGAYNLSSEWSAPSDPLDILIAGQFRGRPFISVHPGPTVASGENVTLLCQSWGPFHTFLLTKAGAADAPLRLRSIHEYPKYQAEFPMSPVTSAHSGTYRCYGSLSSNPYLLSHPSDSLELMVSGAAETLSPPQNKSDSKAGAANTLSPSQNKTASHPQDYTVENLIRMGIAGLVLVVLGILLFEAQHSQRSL
T8 sequence (Q8NHL6 24-650): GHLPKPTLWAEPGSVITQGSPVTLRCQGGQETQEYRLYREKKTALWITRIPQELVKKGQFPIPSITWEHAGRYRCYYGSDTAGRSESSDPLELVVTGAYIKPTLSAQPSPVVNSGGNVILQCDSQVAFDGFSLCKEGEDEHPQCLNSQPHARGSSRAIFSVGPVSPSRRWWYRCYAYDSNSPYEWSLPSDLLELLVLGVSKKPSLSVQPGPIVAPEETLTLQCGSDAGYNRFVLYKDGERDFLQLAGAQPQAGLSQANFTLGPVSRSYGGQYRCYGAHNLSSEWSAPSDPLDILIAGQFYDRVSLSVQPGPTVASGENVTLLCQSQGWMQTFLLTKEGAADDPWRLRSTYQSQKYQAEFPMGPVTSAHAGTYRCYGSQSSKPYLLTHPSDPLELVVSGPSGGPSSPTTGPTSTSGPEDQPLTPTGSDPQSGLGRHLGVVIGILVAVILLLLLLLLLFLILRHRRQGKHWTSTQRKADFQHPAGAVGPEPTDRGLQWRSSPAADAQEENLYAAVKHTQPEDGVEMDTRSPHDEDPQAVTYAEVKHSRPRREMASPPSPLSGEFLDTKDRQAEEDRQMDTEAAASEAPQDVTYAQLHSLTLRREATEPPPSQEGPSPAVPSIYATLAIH

fold weaker affinity than for human ILT4 [1]: ~12 fold
Kd (hILT4-His-Avi tag [2]): 500 pM
app. act. (hILT4-His-Avi tag [2]): 70%
koff (hILT4-His-Avi tag [2]): 0.00054 s⁻¹
kon (hILT4-His-Avi tag [2]): 1.1e+06 M⁻¹ s⁻¹
Kd (hILT4-His-Avi tag [3]): 310 pM and 320 pM and 370 pM
koff (hILT4-His-Avi tag [3]): 0.001 s⁻¹ and 0.0011 s⁻¹
kon (hILT4-His-Avi tag [3]): 3.3e+06 M⁻¹ s⁻¹ and 3.2e+06 M⁻¹ s⁻¹ and 3e+06 M⁻¹ s⁻¹
Kd (hILT4-His-Avi tag [4]): 320 pM
koff (hILT4-His-Avi tag [4]): 0.00026 s⁻¹
kon (hILT4-His-Avi tag [4]): 820000 M⁻¹ s⁻¹
Kd [5]: 4000 pM
koff [5]: 0.0035 s⁻¹
kon [5]: 880000 M⁻¹ s⁻¹
EC50 [6]: 0.0127 µg/mL
B1: 21D9.IgG1.3 (antibody)
heavy: EGQLLESGGDLVQPGGSLRLSCATSGFTFSNYAMNWVRQAPGKGLEWISVISVSGGSTYYADSVKGRFTISRDNSKNTLYLQMNSLRAEDTAVYYCAKDYYYDSGSYYDSFFDYWGQGTLVTVSSASTKGPSVFPLAPSSKSTSGGTAALGCLVKDYFPEPVTVSWNSGALTSGVHTFPAVLQSSGLYSLSSVVTVPSSSLGTQTYICNVNHKPSNTKVDKRVEPKSCDKTHTCPPCPAPEAEGAPSVFLFPPKPKDTLMISRTPEVTCVVVDVSHEDPEVKFNWYVDGVEVHNAKTKPREEQYNSTYRVVSVLTVLHQDWLNGKEYKCKVSNKALPAPIEKTISKAKGQPREPQVYTLPPSREEMTKNQVSLTCLVKGFYPSDIAVEWESNGQPENNYKTTPPVLDSDGSFFLYSKLTVDKSRWQQGNVFSCSVMHEALHNHYTQKSLSLSPG
light: not shown
notes: also called 21D9 WT; ILT4.6.IgG1.3

binding result (human LILRA4): no binding (tested: 20 µg/ml)
binding result (human LILRA1 [7]): no binding (tested: 20 µg/ml)
binding result (human LIR8): no binding (tested: 20 µg/ml)
binding result (human LILRA2): no binding (tested: 20 µg/ml)
binding result (human ILT2): no binding (tested: 20 µg/ml)
binding result (human LILRA6): no binding (tested: 20 µg/ml)
binding result (human ILT3): no binding (tested: 20 µg/ml)
binding result (human LILRA3 [8]): no binding (tested: 20 µg/ml)
binding result (human ILT5): no binding (tested: 20 µg/ml)
EC50 (human LILRA5 [9]): ~313 µg/mL
EC50 [10]: 0.039 µg/mL
Kd (hILT4-His-Avi tag [2]): 580 pM
app. act. (hILT4-His-Avi tag [2]): 94%
Kd (hILT4-His-Avi tag [3]): 390 pM
app. act. (hILT4-His-Avi tag [3]): 93%
Kd (hILT4-His-Avi tag [4]): 330 pM
EC50 [11]: 0.0341 µg/mL
EC50 [6]: 0.00416 µg/mL
B2: 21D9.e.IgG1.3 (antibody, V domains shown)
VH: EVQLLESGGGLVQPGGSLRLSCAASGFTFSNYAMNWVRQAPGKGLEWVSVISVSGGSTYYADSVKGRFTISRDNSKNTLYLQMNSLRAEDTAVYYCAKDYYYDSGSYYDSFFDYWGQGTLVTVSS
VL: not shown
notes: Germline reversion mutant of 21D9 with all four VH reversions; light chain of 21D9; IgG1.3; also called ILT4.8.IgG1.3; ILT4.8

IC50 (rhILT4-Fc [12]): 1.61 µg/mL
EC50 [13]: 0.0898 µg/mL
binding result (human LILRA4): no binding (tested: 20 µg/ml)
binding result (human LIR8): no binding (tested: 20 µg/ml)
binding result (human LILRA5 [14]): no binding (tested: 20 µg/ml)
binding result (human LILRA2): no binding (tested: 20 µg/ml)
binding result (human ILT2): no binding (tested: 20 µg/ml)
binding result (human LILRA6): no binding (tested: 20 µg/ml)
binding result (human ILT3): no binding (tested: 20 µg/ml)
binding result (human ILT5): no binding (tested: 20 µg/ml)
EC50 (human LILRA1 [15]): 12.5 µg/mL
EC50 (human LILRA3 [16]): 9.18 µg/mL
EC50 [10]: 0.091 µg/mL
EC50 [17]: 0.0738 µg/mL
IC50 (rhILT4-Fc [18]): 3.83 µg/mL
Kd (hILT4-His-Avi tag [2]): 23 pM
app. act. (hILT4-His-Avi tag [2]): 98%
koff (hILT4-His-Avi tag [2]): 1.2e-05 s⁻¹
kon (hILT4-His-Avi tag [2]): 520000 M⁻¹ s⁻¹
Kd (hILT4-His-Avi tag [3]): 140 pM
app. act. (hILT4-His-Avi tag [3]): 126%
koff (hILT4-His-Avi tag [3]): 0.00017 s⁻¹
kon (hILT4-His-Avi tag [3]): 1.2e+06 M⁻¹ s⁻¹
EC50 [6]: 0.0518 µg/mL
B3: 21A5.IgG1.3 (antibody, V domains shown)
VH: QVQLVQSGAEVKKPGASVKVSCKASGYTFTDYYLHWVRQAPGQGLEWMGIFHPSGDITSSAQNFQGRVTMIRDTSTSTVYMELSSLRSEDTAVYYCARGGVLRYLDWSHAFDIWGQGTMVTVSS
VL: EIALTQSPGTLSLSPGERATLSCRASQSVSSSYLAWYQQKPGQAPRLLIYGASSRATGIPDRFSGSGSGTDFTLTISRLEPEDFAVYYCQQYGSTFGGGTKVEIKR
notes: Fully human antibody, IgG1.3, kappa; also called 21A5 WT; 21A5WT
